Experiments:
[1] = biological target: poly(ADP-ribose) polymerase I (PARP-1), native, co-purified from HeLa cells (UniProt P09874); assay: cell-based or functional assay
[2] = biological target: mutated e-mH2A1.1 nucleosome complex (HXTX motif at positions 213-216 converted to AAAA) (human) (UniProt O75367); assay: tagged nucleosome complexes isolated at 300 mM NaCl, silver stained SDS-PAGE, PARP-1 relative to histone H1
mutated e-mH2A1.1 nucleosome complex (HXTX motif at positions 213-216 converted to AAAA) (human), sequence (O75367 whole entry, change not shown, one chain of several): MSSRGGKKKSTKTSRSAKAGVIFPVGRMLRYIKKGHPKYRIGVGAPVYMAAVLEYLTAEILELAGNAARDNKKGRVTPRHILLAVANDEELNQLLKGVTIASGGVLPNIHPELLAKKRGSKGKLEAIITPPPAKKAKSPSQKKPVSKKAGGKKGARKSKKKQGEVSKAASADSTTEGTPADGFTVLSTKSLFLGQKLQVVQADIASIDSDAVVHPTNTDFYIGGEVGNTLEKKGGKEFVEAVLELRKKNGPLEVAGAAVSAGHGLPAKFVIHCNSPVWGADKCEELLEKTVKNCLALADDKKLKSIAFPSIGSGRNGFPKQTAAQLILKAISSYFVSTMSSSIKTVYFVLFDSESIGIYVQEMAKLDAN

poly(ADP-ribose) polymerase I (PARP-1), native, co-purified from HeLa cells, sequence (P09874 2-1014 limits assumed): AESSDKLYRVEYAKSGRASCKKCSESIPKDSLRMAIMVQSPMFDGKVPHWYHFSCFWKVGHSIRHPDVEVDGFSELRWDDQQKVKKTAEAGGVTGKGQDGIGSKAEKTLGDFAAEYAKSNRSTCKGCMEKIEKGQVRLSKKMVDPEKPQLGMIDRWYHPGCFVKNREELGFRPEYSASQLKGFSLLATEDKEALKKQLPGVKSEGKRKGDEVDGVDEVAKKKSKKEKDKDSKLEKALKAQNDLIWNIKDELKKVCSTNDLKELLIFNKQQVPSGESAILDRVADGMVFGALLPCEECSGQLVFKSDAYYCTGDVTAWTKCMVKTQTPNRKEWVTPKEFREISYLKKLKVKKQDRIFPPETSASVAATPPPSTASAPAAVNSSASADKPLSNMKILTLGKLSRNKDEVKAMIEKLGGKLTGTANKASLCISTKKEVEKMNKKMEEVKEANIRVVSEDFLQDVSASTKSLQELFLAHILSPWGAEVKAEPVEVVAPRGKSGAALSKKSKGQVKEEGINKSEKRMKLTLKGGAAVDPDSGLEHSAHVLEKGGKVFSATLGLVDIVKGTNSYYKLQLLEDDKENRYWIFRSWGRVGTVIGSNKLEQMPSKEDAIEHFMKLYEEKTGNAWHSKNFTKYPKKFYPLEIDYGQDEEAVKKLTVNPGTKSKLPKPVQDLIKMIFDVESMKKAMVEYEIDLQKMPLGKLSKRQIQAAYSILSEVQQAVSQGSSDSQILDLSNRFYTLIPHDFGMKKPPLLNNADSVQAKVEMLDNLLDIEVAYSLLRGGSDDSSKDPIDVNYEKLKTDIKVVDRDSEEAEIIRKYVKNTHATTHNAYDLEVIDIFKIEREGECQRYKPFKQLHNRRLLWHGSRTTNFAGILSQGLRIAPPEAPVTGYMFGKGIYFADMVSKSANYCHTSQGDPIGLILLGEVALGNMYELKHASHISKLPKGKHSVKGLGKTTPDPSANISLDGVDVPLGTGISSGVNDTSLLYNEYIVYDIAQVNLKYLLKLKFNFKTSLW

extent of PARP-1 labeling during the first minute, against PARP-1 associated with the wild type e-mH2A1.1 nucleosomes [1] | amount of PARP-1 associated, percent of that associated with the WT emH2A1.1 nucleosome complex [2] | Substance
37 times | – | mutated e-mH2A1.1 nucleosome complex (HXTX motif at positions 213-216 converted to AAAA) (from UniProt O75367 1-369)
– | 8 to 10% | poly(ADP-ribose) polymerase I (PARP-1), native, co-purified from HeLa cells (from UniProt P09874 2-1014)
